Measurements reported in publication PMC10282093, “Structural basis of α1A-adrenergic receptor activation and recognition by an extracellular nanobody” (Nature Communications, 2023).
“And” between values parts separate entries of the source, which are not always exact repeats. Equal entries are not always repeated.

Tests used:
α1AAR [1] = molecular target: T1, α1AAR (Homo sapiens, UniProt P35348)
T1 sequence (P35348 1-466): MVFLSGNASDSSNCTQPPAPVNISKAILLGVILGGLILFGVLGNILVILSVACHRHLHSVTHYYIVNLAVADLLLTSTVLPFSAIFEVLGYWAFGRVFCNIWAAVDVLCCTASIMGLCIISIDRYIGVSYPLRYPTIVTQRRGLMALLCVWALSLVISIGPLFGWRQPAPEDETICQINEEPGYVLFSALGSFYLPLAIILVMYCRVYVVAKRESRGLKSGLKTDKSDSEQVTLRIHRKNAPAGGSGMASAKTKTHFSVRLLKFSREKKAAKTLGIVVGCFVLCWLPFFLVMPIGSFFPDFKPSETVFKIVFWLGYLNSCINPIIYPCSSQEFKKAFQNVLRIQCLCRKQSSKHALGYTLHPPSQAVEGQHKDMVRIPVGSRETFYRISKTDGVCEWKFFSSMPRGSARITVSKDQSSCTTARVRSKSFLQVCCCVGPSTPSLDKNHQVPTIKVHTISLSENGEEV

α1AAR [2] = molecular target: T1, α1AAR; assay: Glo-sensor cAMP signaling assay with engineered Gsq protein in HEK293T cells
Procedure: In brief, pGloSensor™−22F plasmid, receptor plasmid, and Gsq plasmid were transfected into HEK293T cells. At 24 h after transfection, the cells were switched into a CO2-Independent Medium (Gibco) and incubated with GloSensor^TM cAMP reagent. The mixture was then transferred to a 96-well white plate. The 96-well plate is placed at 37 °C in the dark for 1 h, then placed at room temperature in the dark for 1 h before use. […] The result curves were calculated and fitted by GraphPad Prism 9.

α1AAR [3] = molecular target: T2, α1AAR (Homo sapiens, UniProt P35348); assay: [3H]prazosin radioligand binding, Sf9 membranes
T2 sequence (P35348 1-370): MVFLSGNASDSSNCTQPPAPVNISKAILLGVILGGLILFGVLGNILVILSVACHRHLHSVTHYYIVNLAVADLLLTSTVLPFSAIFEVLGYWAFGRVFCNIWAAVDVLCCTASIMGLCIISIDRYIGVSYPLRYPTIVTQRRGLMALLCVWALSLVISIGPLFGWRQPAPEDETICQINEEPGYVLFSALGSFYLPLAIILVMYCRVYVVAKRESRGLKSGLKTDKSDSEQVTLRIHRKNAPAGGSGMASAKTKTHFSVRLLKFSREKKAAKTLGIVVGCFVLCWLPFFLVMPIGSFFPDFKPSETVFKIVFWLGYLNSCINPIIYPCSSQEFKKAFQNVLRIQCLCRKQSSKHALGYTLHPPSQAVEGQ
Procedure: After centrifugation, the pellet was homogenized in binding buffer and used as the membrane fraction in binding assays. […] Receptors were incubated for 1 h at room temperature with various concentrations of ligand in a total volume of 100 µl. After the reaction, the mixture was trapped on Whatman GF/B glass filters. Bound and free radioligands were separated by washing with ice-cold binding buffer. Radioactivity was measured on a MicroBeta2 liquid scintillation counter (PerkinElmer).

B1: Nb29: synthetic nanobody (single domain antibody) that binds the extracellular vestibule of α1AAR, preferentially oxymetazoline-bound (antibody, V domains shown)
VH: QVQLQESGGGLVQAGGSLRLSCAASGNISAHWKMGWYRQAPGKEREFVAGIGYANTNYADSVKGRFTISRDNAKNTVYLQMNSLKPEDTAVYYCAAYSYYRDHSYWGQGTQVTVSS
Ki (α1AAR [1]): 4.9 µM | agonist activity on its own (α1AAR [2]): no agonist activity | effect on maximum efficacy of α1AAR activation (α1AAR [2]): slightly reduces | α1AAR activation (Noradrenaline %) (α1AAR [2]; Nb29 alone Log[M] -4): 8.574% and 8.426% and 7.756% | α1AAR activation (Noradrenaline %) (α1AAR [2]; Nb29 alone Log[M] -5): 10.7076% and 10.0868% and 10.3298% | α1AAR activation (Noradrenaline %) (α1AAR [2]; Nb29 alone Log[M] -6): 8.0538% and 8.0467% and 7.523% | α1AAR activation (Noradrenaline %) (α1AAR [2]; Nb29 alone Log[M] -7): 5.836% and 5.21% and 5.469% | α1AAR activation (Noradrenaline %) (α1AAR [2]; Nb29 alone Log[M] -8): 4.832% and 4.868% and 5.077% | α1AAR activation (Noradrenaline %) (α1AAR [2]; Nb29 alone Log[M] -9): 4.7489% and 4.768% and 4.504% | α1AAR activation (Noradrenaline %) (α1AAR [2]; Nb29 alone Log[M] -10): 4.612% and 4.823% and 4.852% | α1AAR activation (Noradrenaline %) (α1AAR [2]; Nb29 alone Log[M] -11): 4.776% and 4.958% and 4.729% | [3H]prazosin binding (α1AAR [3]; Nb29 Log[M] -4): 69.5661% and 61.694% and 66.6796% | [3H]prazosin binding (α1AAR [3]; Nb29 Log[M] -5): 88.6049% and 105.399% and 83.0653% | [3H]prazosin binding (α1AAR [3]; Nb29 Log[M] -6): 111.871% and 107.935% | [3H]prazosin binding (α1AAR [3]; Nb29 Log[M] -7): 113.212% and 110.763% and 99.0136% | [3H]prazosin binding (α1AAR [3]; Nb29 Log[M] -8): 94.5235% and 106.273% and 100.209% | [3H]prazosin binding (α1AAR [3]; Nb29 Log[M] -9): 103.737% and 106.273% | [3H]prazosin binding (α1AAR [3]; Nb29 Log[M] -10): 99.4509% and 97.7015% and 89.1005% | pKi (α1AAR [3]; Nb29 as competitor): 4.39 ± 0.40
